Legend:
[1] = substrate: O=c1cc(-c2ccccc2)oc2cc(O)cc(O)c12; experiment: HPLC glucosylation assay, Lineweaver-Burk; assay type: biochemical, Albuca bracteata; details: 1 mM UDP-Glc fixed, phosphate buffer pH 8.0, 50 °C, apparent Km
[2] = substrate: O=[N+]([O-])c1ccccc1O[C@@H]1O[C@H](CO)[C@H](O)[C@H](O)[C@H]1O; experiment: HPLC hydrolysis assay (o-nitrophenol release), Lineweaver-Burk; assay type: biochemical, Albuca bracteata; details: no UDP or UDP-sugar, phosphate buffer (pH 6.0 in methods, optimum pH 7), 37 °C

B1: OcUGT1 (Albuca bracteata) (protein)
chain: MGSEAHGALHILFFPLMAPGHMLPMVDMAKLFAARGLKPTIFTTPGNVRLIQPSIDNANGSGHQNPIQLFTVPFPSIDGIPDGCENLSSVTQELHVKFFVGLGNLREPFKDSLARLRPDCIVSDMFLPWTADEAAERGMPRLVFHGSNFFTQCAYRSIEHHKVLESLAPGEDTFVIPGLPHRVELRRSTMPDIQTFAPELMDIILQTREAELKSLGTVMNTFYELEPDYADHFCNVMGRRAWNIGPLSLCNKDVADKWRRGNEASITSEFCLNWLDSQEPSSVVYVCFGSLSDFTTAQLREIAAGLEASGRPFVWVVRNHSEEWIPEGLEERVGGKGLIIRGWAPQILILSHVAVGGFLTHCGWNSILEGVSAGLPFVTWPLFADQFYNERLIVDVLKIGVAVGSNEYANKPEERKIIEAAKIEATINELMGDGKDADERREKARALGELAQRAVEKGGSSYRDLDNLISELVEKRSAV
notes: full-length ORF of 1440 bp (479 residues by ORF length)
[1]
  Km: 0.1506 ± 0.0139 mM
[2]
  Km: 6.897 ± 1.995 mM

From publication PMC5897352, “Isolation and characterization of a multifunctional flavonoid glycosyltransferase from Ornithogalum caudatum with glycosidase activity” (Scientific Reports, 2018)
